This note sets out measurements from US20080131423A1 (US Dept. of Health and Human Services, published 2008).

One assay has as its target BSA (UniProt P02769 25-607). In words: phage ELISA, immobilized antigen (data not shown). (In general: In an ELISA, binding on a coated surface is turned into a signal by an enzyme label.)
Assay [1] concerns the target T1, human TREM-like transcript-1 (TLT-1) (human, UniProt Q86YW5 16-311).
T1 construct: whole, on cells; bands of 35 and 25 kDa; also called hTLT-1; TLT-1 on (HEK)293T transfected cells
T1 sequence (looked up): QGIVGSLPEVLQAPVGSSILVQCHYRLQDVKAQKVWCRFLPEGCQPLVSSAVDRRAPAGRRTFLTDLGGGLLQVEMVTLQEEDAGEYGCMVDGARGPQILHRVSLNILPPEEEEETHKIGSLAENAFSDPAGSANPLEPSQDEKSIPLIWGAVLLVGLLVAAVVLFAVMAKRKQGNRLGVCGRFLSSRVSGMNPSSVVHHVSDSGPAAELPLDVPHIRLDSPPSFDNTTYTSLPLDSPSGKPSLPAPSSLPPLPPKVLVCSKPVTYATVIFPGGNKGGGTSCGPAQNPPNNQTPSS
In words: flow cytometry, purified scFv on TLT-1 transfected cells. The protocol:
For flow cytometric analysis with TLT-1-transfected cells, phage-containing supernatants were prepared from individual colonies as previously described (14). (HEK)293T-TLT-1 transfected cells (2×10⁵ cells) were washed with PBS/1% BSA and incubated with phages (2×10¹⁰ TU) or purified scFv (1 μg/ml). After 1 hr of incubation at 4° C., cells were washed twice with PBS/1% BSA. Phage binding was detected by incubation with mouse anti-M13 monoclonal antibody (Amersham Bioscience, Piscataway, N.J.), followed by incubation with phycoerithrin (PE)-conjugated anti-mouse antibody (Jackson Immunoresearch, West Grove, Pa.). To analyze scFv binding to human platelets, platelets were incubated with 1 μg of purified scFv for 1 hour at 4° C. and washed three times with PBS containing 0.5% sodium azide and 0.5% BSA. ScFv binding was detected using a FITC-conjugated anti-c-myc antibody (Sigma, St Louis, Mo.). TLT-1 expression was detected with a commercial anti-human TLT-1 pAb (R&D Systems, MN) as previously described (10).
On the technique in general: A flow cytometer gives signals particle by particle.

Sequence of BSA (P02769 25-607 limits assumed): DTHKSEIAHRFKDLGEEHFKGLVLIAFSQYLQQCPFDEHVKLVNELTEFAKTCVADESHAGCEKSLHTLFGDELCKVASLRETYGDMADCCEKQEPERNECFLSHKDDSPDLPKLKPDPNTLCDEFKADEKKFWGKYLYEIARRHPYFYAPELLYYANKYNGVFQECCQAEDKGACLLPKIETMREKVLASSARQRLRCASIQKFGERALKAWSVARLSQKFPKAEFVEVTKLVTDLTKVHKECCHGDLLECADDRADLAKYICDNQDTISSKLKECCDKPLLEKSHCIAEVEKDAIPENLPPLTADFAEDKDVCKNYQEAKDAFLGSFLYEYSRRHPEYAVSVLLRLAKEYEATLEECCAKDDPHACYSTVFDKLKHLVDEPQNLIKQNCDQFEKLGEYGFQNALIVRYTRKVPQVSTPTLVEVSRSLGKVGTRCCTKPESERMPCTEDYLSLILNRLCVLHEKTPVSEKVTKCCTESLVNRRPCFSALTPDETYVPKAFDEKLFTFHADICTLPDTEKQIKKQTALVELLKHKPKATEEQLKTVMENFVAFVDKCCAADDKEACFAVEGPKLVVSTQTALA

B1: scFv C10 (scFv)
scFv: MAEVQLLESGGGLVQPGGSLRLSCAASGFTFSSYAMSWVRQAPGKGLEWVSGISSTGGATTYADSVKGRFTISRDNSKNTLYLQMNSLRAEDTAVYYCAKSTYDFDYWGQGTLVTVSSGGGGSGGGGSGGGGSTDIQMTQSPSSLSASVGDRVTITCRASQSISSYLNWYQQKPGKAPKLLIYGASTLQSGVPSRFSGSGSGTDFTLTISSLQPEDFATYYCQQNADAPTTFGQGTKVEIKRAAAHHHHHHGAAEQKLISEEDLNGAA
notes: Human scFv from the Tomlinson I phage library; Soluble form made in E. coli HB2151 and purified on Protein L (28 kDa); also called clone C10
Take B1: the binding result in the assay with BSA was “no binding”.

B2: scFv A1 (scFv)
scFv: MAEVQLLESGGGLVQPGGSLRLSCAASGFTFSSYAMSWVRQAPGKGLEWVSGIGTTGYATAYADSVKGRFTISRDNSKNTLYLQMNSLRAEDTAVYYCAKGNSGFDYWGQGTLVTVSSGGGGSGGGGSGGGGSTDIQMTQSPSSLSASVGDRVTITCRASQSISSYLNWYQQKPGKAPKLLIYTASTLQSGVPSRFSGSGSGTDFTLTISSLQPEDFATYYCQQSSTDPGTFGQGTKVEIKRAAAHHHHHHGAAEQKLISEEDLNGAA
notes: Human scFv from the Tomlinson I phage library; Soluble form purified on Protein L; also called GenBank DQ375449
For the molecule B2, the binding result in the assay with BSA is “no binding”; in assay [1] it was “binds”.

B3: scFv A8 (scFv)
scFv: MAEVQLLESGGGLVQPGGSLRLSCAASGFTFSSYAMSWVRQAPGKGLEWVSGIGTTGYSTAYADSVKGRFTISRDNSKNTLYLQMNSLRAEDTAVYYCAKTAYTFDYWGQGTLVTVSSGGGGSGGGGSGGGGSTDIQMTQSPSSLSASVGDRVTITCRASQSISSYLNWYQQKPGKAPKLLIYSASTLQSGVPSRFSGSGSGTDFTLTISSLQPEDFATYYCQQNSTYPATFGQGTKVEIKRAAAHHHHHHGAAEQKLISEEDLNGAA
notes: Human scFv from the Tomlinson I phage library; Soluble form purified on Protein L; also called GenBank DQ375451
Turning to B3, the binding result with BSA is on record as “no binding”; in assay [1], “binds”.

B4: scFv D1 (scFv)
scFv: MAEVQLLESGGGLVQPGGSLRLSCAASGFTFSSYAMSWVRQAPGKGLEWVSAIGTTGYATAYADSVKGRFTISRDNSKNTLYLQMNSLRAEDTAVYYCAKANSYFDYWGQGTLVTVSSGGGGSGGGGSGGGGSTDIQMTQSPSSLSASVGDRVTITCRASQSISSYLNWYQQKPGKAPKLLIYSASTLQSGVPSRFSGSGSGTDFTLTISSLQPEDFATYYCQQDSTSPDTFGQGTKVEIKRAAAHHHHHHGAAEQKLISEEDLNGAA
notes: Human scFv from the Tomlinson I phage library; Soluble form purified on Protein L; also called GenBank DQ375454
B4: the results for the binding result (in the assay with BSA; in assay [1]) were “no binding” and “binds”, respectively.

B5: scFv A7 (scFv)
scFv: MAEVQLLESGGGLVQPGGSLRLSCAASGFTFSSYAMSWVRQAPGKGLEWVSAIGSYGSATAYADSVKGRFTISRDNSKNTLYLQMNSLRAEDTAVYYCAKNGYDFDYWGQGTLVTVSSGGGGSGGGGSGGGGSTDIQMTQSPSSLSASVGDRVTITCRASQSISSYLNWYQQKPGKAPKLLIYNASGLQSGVPSRFSGSGSGTDFTLTISSLQPEDFATYYCQQSAANPSTFGQGTKVEIKRAAAHHHHHHGAAEQKLISEEDLNGAA
notes: Human scFv from the Tomlinson I phage library; Soluble form purified on Protein L; also called GenBank DQ375450
Take B5: the binding result in the assay with BSA is listed as “no binding”; in assay [1], “binds”.

B6: scFv B8 (scFv)
scFv: MAEVQLLESGGGLVQPGGSLRLSCAASGFTFSSYAMSWVRQAPGKGLEWVSNITASGYATAYADSVKGRFTISRDNSKNTLYLQMNSLRAEDTAVYYCAKTTATFDYWGQGTLVTVSSGGGGSGGGGSGGGGSTDIQMTQSPSSLSASVGDRVTITCRASQSISSYLNWYQQKPGKAPKLLIYDASNLQSGVPSRFSGSGSGTDFTLTISSLQPEDFATYYCQQDTASPSTFGQGTKVEIKRAAAHHHHHHGAAEQKLISEEDLNGAA
notes: Human scFv from the Tomlinson I phage library; Soluble form purified on Protein L; also called GenBank DQ375452
For B6, the binding result with BSA is “no binding”.
